Where two headings read alike, the source gives them in different places.

For assay [1], the target named is T1, OX40 receptor on cells (human, UniProt P43489 29-277).
T1 sequence (looked up): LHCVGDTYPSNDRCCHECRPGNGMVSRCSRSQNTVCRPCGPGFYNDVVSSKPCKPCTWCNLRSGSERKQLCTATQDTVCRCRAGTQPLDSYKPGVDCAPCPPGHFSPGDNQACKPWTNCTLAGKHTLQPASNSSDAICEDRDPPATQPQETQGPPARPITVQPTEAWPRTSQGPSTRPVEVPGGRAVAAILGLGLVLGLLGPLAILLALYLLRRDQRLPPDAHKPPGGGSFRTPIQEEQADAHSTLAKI
As to the kind of experiment: cell-based or functional assay.

For assay [2], the target named is T2, CD40-Fc (human, UniProt P25942 21-193).
T2 construct: extracellular domain; hinge included for covalent assembly; also called CD40 receptor-Fc fusion protein; not shown: human Fc gamma 1 region including the hinge region
T2 sequence (P25942 21-193 limits assumed): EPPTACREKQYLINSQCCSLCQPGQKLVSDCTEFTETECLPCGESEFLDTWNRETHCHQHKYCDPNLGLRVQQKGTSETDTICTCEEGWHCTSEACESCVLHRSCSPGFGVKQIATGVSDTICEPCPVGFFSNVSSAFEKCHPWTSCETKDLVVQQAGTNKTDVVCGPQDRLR
As to the kind of experiment: ELISA, coated receptor-Fc. In general terms: ELISA stands for enzyme-linked immunosorbent assay.

The next assay deals with T3, 4-1BB-Fc (human, UniProt Q07011 24-186).
T3 construct: extracellular domain; hinge included for covalent assembly; also called 4-1BB receptor-Fc fusion protein; not shown: human Fc gamma 1 region including the hinge region
As to the kind of experiment: ELISA, coated receptor-Fc.

The target in assay [3] is T4, OX40-Fc (human, UniProt P43489 29-214).
T4 construct: extracellular domain; hinge included for covalent assembly; also called OX40 receptor-Fc fusion protein; not shown: human Fc gamma 1 region including the hinge region
T4 sequence (looked up): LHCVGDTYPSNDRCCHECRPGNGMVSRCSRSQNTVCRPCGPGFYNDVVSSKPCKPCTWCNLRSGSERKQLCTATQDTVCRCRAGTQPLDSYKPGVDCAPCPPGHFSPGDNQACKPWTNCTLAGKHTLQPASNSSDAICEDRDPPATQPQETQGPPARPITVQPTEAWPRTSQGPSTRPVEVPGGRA
As to the kind of experiment: ELISA, coated receptor-Fc. How it is done: (§1) Receptor binding of the Duokines was analyzed by ELISA using fusion proteins of the extracellular region of CD40, CD27, 4-1BB and OX40, respectively, with the human Fcγ1 region including the hinge region for covalent assembly (CD40-Fc, CD27-Fc, 4-1BB-Fc, OX40-Fc). Receptor-Fc fusion proteins (200 ng/well) were coated overnight at 4° C. and remaining binding sites were blocked with PBS, 2% skimmed milk powder (2% MPBS).

Assay [4] deals with T5, CD27-Fc (human, UniProt P26842 20-191).
T5 construct: extracellular domain; hinge included for covalent assembly; also called CD27 receptor-Fc fusion protein; not shown: human Fc gamma 1 region including the hinge region
T5 sequence (looked up): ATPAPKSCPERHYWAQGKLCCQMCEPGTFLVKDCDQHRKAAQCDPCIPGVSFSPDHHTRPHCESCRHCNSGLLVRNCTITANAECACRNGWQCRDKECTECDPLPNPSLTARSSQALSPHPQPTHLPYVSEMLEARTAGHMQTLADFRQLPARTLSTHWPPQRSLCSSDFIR
As to the kind of experiment: ELISA, coated receptor-Fc. How it is done: as §1

Assay [5] deals with T6, CD40 receptor on cells (human, UniProt P25942 21-277). As to the kind of experiment: cell-based or functional assay.
T6 sequence (P25942 21-277): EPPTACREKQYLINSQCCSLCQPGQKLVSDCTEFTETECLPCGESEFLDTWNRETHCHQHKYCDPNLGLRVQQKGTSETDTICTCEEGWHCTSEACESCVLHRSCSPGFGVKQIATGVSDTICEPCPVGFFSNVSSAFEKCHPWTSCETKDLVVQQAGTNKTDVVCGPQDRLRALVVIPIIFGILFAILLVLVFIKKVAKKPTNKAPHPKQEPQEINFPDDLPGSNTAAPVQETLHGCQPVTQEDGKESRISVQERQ
The target in assay [6] is T5, CD27-Fc. As to the kind of experiment: ELISA, coated receptor-Fc. The source holds these as a separate data set.
For assay [7], the target named is T2, CD40-Fc. As to the kind of experiment: ELISA, coated receptor-Fc. How it is done: as §1
This is another data set of the same source.

The target in assay [8] is T6, CD40 receptor on cells. Description: cell-based or functional assay. This is another data set of the same source.
Assay [9] has as its target T2, CD40-Fc. Description: ELISA, coated receptor-Fc. How it is done:
(§2) Receptor binding of the single-chain Duokines was analyzed by ELISA using fusion proteins of the extracellular region of CD40, CD27, 4-1BB and OX40, respectively, with the human Fcγ1 region including the hinge region for covalent assembly (CD40-Fc, CD27-Fc, 4-1BB-Fc, OX40-Fc). Receptor-Fc fusion proteins (200 ng/well) were coated overnight at 4° C. and remaining binding sites were blocked with PBS, 2% skimmed milk powder (2% MPBS). […] The interactions between scDuokine and receptor were dose-dependent with EC₅₀ values in the low nanomolar ranges (FIG. 11 AB, Tab. 2).
The source holds these as a separate data set.

The target of assay [10] is T5, CD27-Fc. As to the kind of experiment: ELISA, coated receptor-Fc. How it is done: as §2
The source holds these as a separate data set.

Assay [11] addresses T4, OX40-Fc. As to the kind of experiment: ELISA, coated receptor-Fc. The source holds these as a separate data set.
For assay [12], the target named is T1, OX40 receptor on cells. Description: cell-based or functional assay. This is another data set of the same source.
Assay [13] addresses T4, OX40-Fc. As to the kind of experiment: ELISA, coated receptor-Fc. How it is done:
as §2
The source holds these as a separate data set.

B1: CD27L-OX40L (ligand)
chain: SLGWDVAELQLNHTGPQQDPRLYWQGGPALGRSFLHGPELDKGQLRIHRDGIYMVHIQVTLAICSSTTASRHHPTTLAVGICSPASRSISLLRLSFHQGCTIASQRLTPLARGDTLCTNLTGTLLPSRNTDETFFGVQWVRPGGGGSGGGGSGGGGSQVSHRYPRIQSIKVQFTEYKKEKGFILTSQKEDEIMKVQNNSVIINCDGFYLISLKGYFSQEVNISLHYQKDEEPLFQLKKVRSVNSLMVASLTYKDKVYLNVTTDNTSLDDFHVNGGELILIHQNPGEFCVL
notes: Duokine from HEK293, FLAG-purified; VH leader left out; homotrimer by SEC; also called Duokine CD27L-OX40L; not shown: N-terminal FLAG tag
By EC50 is commonly meant the concentration at which the effect is half-maximal. Read a low EC50 as greater potency. Turning to B1, the “Receptor activation (EC50, nM)” value with OX40 receptor on cells [1] was determined as 10.2 nM. In addition, the binding result in the assay with CD40-Fc [2] and in the assay with 4-1BB-Fc was “no binding (tested: 100 nM (FIG. 4))” each time. Moreover, the EC50 came out at 3.16 nM in the assay with OX40-Fc [3] and 6.74 nM with CD27-Fc [4].

B2: OX40L-CD40L (ligand)
chain: QVSHRYPRIQSIKVQFTEYKKEKGFILTSQKEDEIMKVQNNSVIINCDGFYLISLKGYFSQEVNISLHYQKDEEPLFQLKKVRSVNSLMVASLTYKDKVYLNVTTDNTSLDDFHVNGGELILIHQNPGEFCVLGGGGSGGGGSGGGGSGDQNPQIAAHVISEASSKTTSVLQWAEKGYYTMSNNLVTLENGKQLTVKRQGLYYIYAQVTFCSNREASSQAPFIASLCLKSPGRFERILLRAANTHSSAKPCGQQSIHLGGVFELQPGASVFVNVTDPSQVSHGTGFTSFGLLKL
notes: Duokine from HEK293, FLAG-purified; VH leader left out; homotrimer by SEC; also called Duokine OX40L-CD40L; not shown: N-terminal FLAG tag
As to B2, the entries for the “Receptor activation (EC50, nM)” value in the assay with OX40 receptor on cells [1] and in the assay with CD40 receptor on cells [5] were 0.73 nM and 3.86 nM, respectively. In addition, the binding result in the assay with CD27-Fc [6] and in the assay with 4-1BB-Fc was “no binding (tested: 100 nM (FIG. 4))” each time. Moreover, the EC50 with CD40-Fc [7] came to 1.45 nM; in the assay with OX40-Fc [3], 1.01 nM.

B3: scCD27L-scCD40L (ligand)
chain: SLGWDVAELQLNHTGPQQDPRLYWQGGPALGRSFLHGPELDKGQLRIHRDGIYMVHIQVTLAICSSTTASRHHPTTLAVGICSPASRSISLLRLSFHQGCTIASQRLTPLARGDTLCTNLTGTLLPSRNTDETFFGVQWVRPGGGSGGGSLGWDVAELQLNHTGPQQDPRLYWQGGPALGRSFLHGPELDKGQLRIHRDGIYMVHIQVTLAICSSTTASRHHPTTLAVGICSPASRSISLLRLSFHQGCTIASQRLTPLARGDTLCTNLTGTLLPSRNTDETFFGVQWVRPGGGSGGGSLGWDVAELQLNHTGPQQDPRLYWQGGPALGRSFLHGPELDKGQLRIHRDGIYMVHIQVTLAICSSTTASRHHPTTLAVGICSPASRSISLLRLSFHQGCTIASQRLTPLARGDTLCTNLTGTLLPSRNTDETFFGVQWVRPGGGGSGGGTGGGGSGDQNPQIAAHVISEASSKTTSVLQWAEKGYYTMSNNLVTLENGKQLTVKRQGLYYIYAQVTFCSNREASSQAPFIASLCLKSPGRFERILLRAANTHSSAKPCGQQSIHLGGVFELQPGASVFVNVTDPSQVSHGTGFTSFGLLKLGGGSGGGGDQNPQIAAHVISEASSKTTSVLQWAEKGYYTMSNNLVTLENGKQLTVKRQGLYYIYAQVTFCSNREASSQAPFIASLCLKSPGRFERILLRAANTHSSAKPCGQQSIHLGGVFELQPGASVFVNVTDPSQVSHGTGFTSFGLLKLGGGSGGGGDQNPQIAAHVISEASSKTTSVLQWAEKGYYTMSNNLVTLENGKQLTVKRQGLYYIYAQVTFCSNREASSQAPFIASLCLKSPGRFERILLRAANTHSSAKPCGQQSIHLGGVFELQPGASVFVNVTDPSQVSHGTGFTSFGLLKL
notes: scDuokine from HEK293, FLAG-purified; VH leader left out; also called single-chain Duokine scCD27L-scCD40L; not shown: N-terminal FLAG tag
As for B3, in the assay with CD40 receptor on cells [8], the “Receptor activation (EC50, nM)” value turned out to be 3.7 nM. Also, the EC50 with CD40-Fc [9] came out at 8.04 nM; with CD27-Fc [10], 3.3 nM. Also, the binding result with OX40-Fc [11] and with 4-1BB-Fc was “no binding (tested: 100 nM (FIG. 10))” each time.

B4: scCD40L-scOX40L (ligand)
chain: GDQNPQIAAHVISEASSKTTSVLQWAEKGYYTMSNNLVTLENGKQLTVKRQGLYYIYAQVTFCSNREASSQAPFIASLCLKSPGRFERILLRAANTHSSAKPCGQQSIHLGGVFELQPGASVFVNVTDPSQVSHGTGFTSFGLLKLGGGSGGGGDQNPQIAAHVISEASSKTTSVLQWAEKGYYTMSNNLVTLENGKQLTVKRQGLYYIYAQVTFCSNREASSQAPFIASLCLKSPGRFERILLRAANTHSSAKPCGQQSIHLGGVFELQPGASVFVNVTDPSQVSHGTGFTSFGLLKLGGGSGGGGDQNPQIAAHVISEASSKTTSVLQWAEKGYYTMSNNLVTLENGKQLTVKRQGLYYIYAQVTFCSNREASSQAPFIASLCLKSPGRFERILLRAANTHSSAKPCGQQSIHLGGVFELQPGASVFVNVTDPSQVSHGTGFTSFGLLKLGGGGSGGGTGGGGSQVSHRYPRIQSIKVQFTEYKKEKGFILTSQKEDEIMKVQNNSVIINCDGFYLISLKGYFSQEVNISLHYQKDEEPLFQLKKVRSVNSLMVASLTYKDKVYLNVTTDNTSLDDFHVNGGELILIHQNPGEFCVLGGGSGGGQVSHRYPRIQSIKVQFTEYKKEKGFILTSQKEDEIMKVQNNSVIINCDGFYLISLKGYFSQEVNISLHYQKDEEPLFQLKKVRSVNSLMVASLTYKDKVYLNVTTDNTSLDDFHVNGGELILIHQNPGEFCVLGGGSGGGQVSHRYPRIQSIKVQFTEYKKEKGFILTSQKEDEIMKVQNNSVIINCDGFYLISLKGYFSQEVNISLHYQKDEEPLFQLKKVRSVNSLMVASLTYKDKVYLNVTTDNTSLDDFHVNGGELILIHQNPGEFCVL
notes: scDuokine from HEK293, FLAG-purified; VH leader left out; also called single-chain Duokine scCD40L-scOX40L; not shown: N-terminal FLAG tag
B4: the “Receptor activation (EC50, nM)” value in the assay with OX40 receptor on cells [12] is 0.57 nM; in the assay with CD40 receptor on cells [8], 9.54 nM. Moreover, the values for the EC50 with CD40-Fc [9] and with OX40-Fc [13] were 40.2 nM and 1.33 nM, respectively. Also, the binding result with CD27-Fc [6] and with 4-1BB-Fc was “no binding (tested: 100 nM (FIG. 10))” throughout.

B5: CD40L-OX40L (ligand)
chain: GDQNPQIAAHVISEASSKTTSVLQWAEKGYYTMSNNLVTLENGKQLTVKRQGLYYIYAQVTFCSNREASSQAPFIASLCLKSPGRFERILLRAANTHSSAKPCGQQSIHLGGVFELQPGASVFVNVTDPSQVSHGTGFTSFGLLKLGGGGSGGGGSGGGGSQVSHRYPRIQSIKVQFTEYKKEKGFILTSQKEDEIMKVQNNSVIINCDGFYLISLKGYFSQEVNISLHYQKDEEPLFQLKKVRSVNSLMVASLTYKDKVYLNVTTDNTSLDDFHVNGGELILIHQNPGEFCVL
notes: Duokine from HEK293, FLAG-purified; VH leader left out; homotrimer by SEC; also called Duokine CD40L-OX40L; not shown: N-terminal FLAG tag
As to B5, the “Receptor activation (EC50, nM)” value in the assay with OX40 receptor on cells [1] stood at 0.7 nM; with CD40 receptor on cells [5] it was 16.6 nM. Besides, the binding result with CD27-Fc [6] and with 4-1BB-Fc was “no binding (tested: 100 nM (FIG. 4))” throughout. Moreover, the values for the EC50 with CD40-Fc [7] and with OX40-Fc [3] were 2.18 nM and 0.51 nM, respectively.

The record behind these values is patent US20190276511A1 (BIONTECH RNA PHARMACEUTICALS, published 2019).
